Measured values: US9187525B2, “Methods of treating ophthalmic diseases using NPR-B agonists” (Shire Orphan Therapies GmbH, dated 2015)
Numbered stars: 1 amine (or outer) side, 2 acyl side, 3 side chain; on linkers, the order of the positions; unused ones are H or OH. Square brackets hold non-standard residues; d marks the D form. Ends that are not written are not given here. * marks the point of attachment. 6988 = 2-pentyl-benzooxazole-5-carboxylic acid, CCCCCc1nc2cc(C(=O)*)ccc2o1; 3421 = 3-Amino-4-hydroxy-benzoic acid, O=C(c1ccc(O[*:3])c(N[*:1])c1)[*:2]; 4703 = 3-(4-bromo-phenyl)-propionic acid, O=C(CCc1ccc(Br)cc1)*; 4734 = (4-butoxy-phenyl)-acetic acid, CCCCOc1ccc(CC(=O)*)cc1; Pro(trans-4-NH2) = O=C([C@@H]1C[C@@H](N[*:3])CN1[*:1])[*:2]; Sni = (S)-nipecotic acid, O=C([C@H]1CCCN([*:1])C1)[*:2]; 1695 = Piperidine-1,2-dicarboxylic acid 1-benzyl ester; Butanoyl(4-(4-MeO-phenyl)) = COc1ccc(CCCC(=O)*)cc1; Phe(3,4-Cl2) = N[C@@H](Cc1ccc(Cl)c(Cl)c1)C(=O)O; Pbf = Cc1c(C)c(S(=O)(=O)*)c(C)c2c1OC(C)(C)C2; Phe(3-Cl) = N[C@@H](Cc1cccc(Cl)c1)C(=O)O; Butanoyl(4-cHex) = O=C(CCCC1CCCCC1)*; Pentanoyl(5-Ph) = O=C(CCCCc1ccccc1)*; Butanoyl(4-Ph) = O=C(CCCc1ccccc1)*; NMeR = CN[C@@H](CCCNC(=N)N)C(=O)O; dDap(Me2) = CN(C)C[C@@H](N)C(=O)O; Hyp = O=C(O)[C@@H]1C[C@@H](O)CN1; NMeF = CN[C@@H](Cc1ccccc1)C(=O)O; NMeI = CC[C@H](C)[C@H](NC)C(=O)O; tBuAla = CC(C)(C)C[C@H](N)C(=O)O; 3Thi = N[C@@H](Cc1ccsc1)C(=O)O; NMeD = CN[C@@H](CC(=O)O)C(=O)O; NMeL = CN[C@@H](CC(C)C)C(=O)O; Octanoyl = CCCCCCCC(=O)*; Api = NC1(C(=O)O)CCNCC1; Che = not defined here; Hexanoyl = CCCCCC(=O)*; leu = not defined here; Occ = octanoic acid

T1: natriuretic peptide receptor-B (human)
T1 chain: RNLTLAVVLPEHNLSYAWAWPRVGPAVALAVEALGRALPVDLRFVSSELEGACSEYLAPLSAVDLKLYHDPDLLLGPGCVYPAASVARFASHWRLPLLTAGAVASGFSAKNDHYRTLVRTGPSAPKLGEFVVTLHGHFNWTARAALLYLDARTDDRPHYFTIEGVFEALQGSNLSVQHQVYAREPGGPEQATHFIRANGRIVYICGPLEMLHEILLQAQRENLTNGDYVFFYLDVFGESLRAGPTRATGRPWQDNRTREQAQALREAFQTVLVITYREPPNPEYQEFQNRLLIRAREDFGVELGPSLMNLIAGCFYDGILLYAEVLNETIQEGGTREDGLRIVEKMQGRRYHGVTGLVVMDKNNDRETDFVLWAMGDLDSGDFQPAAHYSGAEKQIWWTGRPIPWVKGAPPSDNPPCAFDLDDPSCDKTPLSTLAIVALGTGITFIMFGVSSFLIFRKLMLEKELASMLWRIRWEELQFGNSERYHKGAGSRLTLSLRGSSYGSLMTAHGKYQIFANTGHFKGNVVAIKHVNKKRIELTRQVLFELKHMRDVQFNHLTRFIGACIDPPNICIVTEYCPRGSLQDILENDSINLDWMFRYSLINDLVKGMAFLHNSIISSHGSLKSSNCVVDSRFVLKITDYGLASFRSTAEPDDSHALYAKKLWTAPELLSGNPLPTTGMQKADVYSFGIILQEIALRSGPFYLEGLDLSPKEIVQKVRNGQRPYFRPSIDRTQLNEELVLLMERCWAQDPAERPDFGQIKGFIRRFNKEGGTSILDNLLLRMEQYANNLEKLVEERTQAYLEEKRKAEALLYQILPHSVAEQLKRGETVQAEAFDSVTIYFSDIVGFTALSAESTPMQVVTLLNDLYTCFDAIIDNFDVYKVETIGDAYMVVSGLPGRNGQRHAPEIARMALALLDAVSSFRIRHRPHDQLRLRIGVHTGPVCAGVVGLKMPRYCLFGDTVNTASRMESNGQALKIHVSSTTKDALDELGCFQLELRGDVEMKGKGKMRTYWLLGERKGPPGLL


Target: T1, natriuretic peptide receptor-B
Experiment: cell-based or functional assay

Binder | EC50 group, cGMP in GTM-3 cells [µM]
[Occ][Sni]F[Api]L[Hyp][NMeL]DP[Che] (reading uncertain; also: printed as Occ-Sni-Phe-Apc-Leu-Hyp-Nml-Asp-Pro-Che) [JAL-1601] | ≤ 5
[Occ][Sni][NMeF][dL]L[Hyp][NMeL]DRI-NH2 [JAL-1573] | ≤ 1
{Butanoyl(4-cHex)}-[dP]FGLKLDRI-NH2 [JAL-0695] | ≤ 15
[Occ][Sni]F[dDap(Me2)]L[Hyp][NMeL]DP[Che] (reading uncertain; also: printed as Occ-Sni-Phe-dap(Me2)-Leu-Hyp-Nml-Asp-Pro-Che) [JAL-1604] | ≤ 1
[Occ][Sni]F[Api]L[Pro(trans-4-NH2)][NMeL]DP[Che] (reading uncertain; also: printed as Occ-Sni-Phe-Apc-Leu-Tap-Nml-Asp-Pro-Che) [JAL-1602] | ≤ 1
Octanoyl-[Sni]F[dL][NMeL][Hyp][NMeL]DP[Che] (not fully specified; printed as Occ-Sni-Phe-leu-Nml-Hyp-Nml-Asp-Pro-Che; reading uncertain) [JAL-1598] | ≤ 15
[Occ][Sni]F[dDap(Me2)]L[Hyp][NMeL]DR[NMeI]-NH2 [JAL-1575] | ≤ 15
[Occ]XFXLXXDRI-NH2 (not fully specified (residues 2, 4, 6, 7); printed as Occ-Sni-Phe-nml-Leu-Hyp-Nml-Asp-Arg-Ile-NH2) [JAL-1574] | ≤ 15
[Occ][Sni]F[dL]L[Hyp][NMeL]D[NMeR]I-NH2 [JAL-1570] | ≤ 5
Hexanoyl-[3421][Sni]F[dL]L[Hyp][NMeL]DRI-NH2 (not fully specified; printed as Hex-(3421)-Sni-Phe-leu-Leu-Hyp-Nml-Asp-Arg-Ile-NH2) [JAL-1616] | ≤ 5
[Occ][Sni][NMeF][dDap(Me2)]L[Hyp][NMeL]DRI-NH2 [JAL-1579] | ≤ 1
1695-[Sni]F[dL]L[Hyp][NMeL]DRI-NH2 (not fully specified; printed as 1695-Sni-Phe-leu-Leu-Hyp-Nml-Asp-Arg-Ile-NH2) [JAL-1617] | ≤ 15
[Occ][Sni]FGL[Hyp][NMeL]DP[Che] (reading uncertain; also: printed as Occ-Sni-Phe-Gly-Leu-Hyp-Nml-Asp-Pro-Che) [JAL-1600] | ≤ 5
{Pentanoyl(5-Ph)}-[dP]FGLKLDRI-NH2 [JAL-0696] | ≤ 15
[Occ][Sni]F[dDap(Me2)]L[Hyp][NMeL]D[NMeR]I-NH2 [JAL-1576] | ≤ 1
Octanoyl-[Sni][Phe(3-Cl)][dL]L[Hyp][NMeL]DRI-NH2 (not fully specified; printed as Occ-Sni-Mcf-leu-Leu-Hyp-Nml-Asp-Arg-Ile-NH2) [JAL-1618] | ≤ 1
{Butanoyl(4-(4-MeO-phenyl))}-[Sni]F[dL]L[Hyp][NMeL]DRI-NH2 [JAL-1607] | ≤ 15
Octanoyl-[Sni]FLL[Hyp][tBuAla]DP[Che] (not fully specified (some residues); printed as Occ-Sni-Phe-leu-Leu-Hyp-Npg-Asp-Pro-Che; reading uncertain) [JAL-1595] | ≤ 1

Binder | EC50 group, cGMP in GTM-3 cells [µM]
{Pentanoyl(5-Ph)}-[Sni]F[dL]L[Hyp][NMeL]DRI-NH2 [JAL-1606] | ≤ 1
4703-[Sni]F[dL]L[Hyp][NMeL]DRI-NH2 [JAL-1612] | ≤ 5
6988-[Sni]F[dL]L[Hyp][NMeL]DRI-NH2 [JAL-1615] | ≤ 15
[Occ][Sni][Pbf][leu]L[Hyp][NMeL]DRI-NH2 (reading uncertain; also: printed as Occ-Sni-Pbf-leu-Leu-Hyp-Nml-Asp-Arg-Ile-NH2) [JAL-1619] | ≤ 1
[Occ][Sni]F[dDap(Me2)]L[Hyp][NMeL]DPI-NH2 [JAL-1580] | ≤ 1
Octanoyl-[Sni]FLL[Hyp]IDP[Che] (not fully specified (some residues); printed as Occ-Sni-Phe-leu-Leu-Hyp-Ile-Asp-Pro-Che; reading uncertain) [JAL-1596] | ≤ 5
[Occ][Sni]F[dL][NMeL][Hyp][NMeL]DRI-NH2 [JAL-1572] | ≤ 15
[Occ][Sni]F[dDap(Me2)]L[Hyp][NMeL][NMeD]RI-NH2 [JAL-1577] | ≤ 15
[Occ][Sni]F[dDap(Me2)][NMeL][Hyp][NMeL]DRI-NH2 [JAL-1578] | ≤ 5
{Butanoyl(4-Ph)}-[Sni]F[dL]L[Hyp][NMeL]DRI-NH2 [JAL-1605] | ≤ 1
Octanoyl-[dP]FGLKLDRI-NH2 [JAL-0694] | ≤ 15
[Occ][Sni][3Thi][leu]L[Hyp][NMeL]DRI-NH2 (reading uncertain; also: printed as Occ-Sni-Thk-leu-Leu-Hyp-Nml-Asp-Arg-Ile-NH2) [JAL-1620] | ≤ 1
4734-[Sni]F[dL]L[Hyp][NMeL]DRI-NH2 [JAL-1609] | ≤ 5
Octanoyl-[Sni]FLL[Hyp][NMeL]VP[Che] (not fully specified (some residues); printed as Occ-Sni-Phe-leu-Leu-Hyp-Nml-Val-Pro-Che; reading uncertain) [JAL-1594] | ≤ 5
[Occ][Sni]F[dDap(Me2)]L[Pro(trans-4-NH2)][NMeL]DP[Che] (reading uncertain; also: printed as Occ-Sni-Phe-dap(Me2)-Leu-Tap-Nml-Asp-Pro-Che) [JAL-1603] | ≤ 1
Octanoyl-[Sni][Phe(3,4-Cl2)][dL]L[Hyp][NMeL]DP[Che] (not fully specified; printed as Occ-Sni-Eaa-leu-Leu-Hyp-Nml-Asp-Pro-Che; reading uncertain) [JAL-1599] | ≤ 1
Octanoyl-[Sni][NMeF][dL]L[Hyp][NMeL]DP[Che] (not fully specified; printed as Occ-Sni-Nmf-leu-Leu-Hyp-Nml-Asp-Pro-Che; reading uncertain) [JAL-1597] | ≤ 1
